Measurements taken from patent US20030232009A1 (Amgen, published 2003).
Read-outs that look alike come from different tables or passages of the source.

Legend:
[1] = molecular target: T1, Macaque 46 mer peptide (RB exon of macaque CD45RB) (macaque); experiment: ELISA, well supernatant on coated peptide
T1 construct: synthetic peptide
T1 peptide: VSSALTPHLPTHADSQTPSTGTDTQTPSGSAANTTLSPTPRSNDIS

[2] = molecular target: T2, Human 46 mer peptide (RB exon of human CD45) (human); experiment: ELISA, well supernatant on coated peptide
T2 construct: synthetic peptide; also called CD45RB 46 mer
T2 peptide: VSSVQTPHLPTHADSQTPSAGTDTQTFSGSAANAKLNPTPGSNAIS

Human 20.1 peptide [3] = molecular target: T3, Human 20.1 peptide (human); experiment: ELISA, well supernatant on coated peptide
T3 construct: synthetic peptide from the RB exon
T3 peptide: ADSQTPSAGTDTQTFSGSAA

[4] = molecular target: T1, Macaque 46 mer peptide (RB exon of …); experiment: ELISA, well supernatant on coated peptide
[5] = molecular target: T2, Human 46 mer peptide (RB exon of human …); experiment: ELISA, well supernatant on coated peptide
Human 20.1 peptide [6] = molecular target: T3, Human 20.1 peptide; experiment: ELISA, well supernatant on coated peptide
[7] = molecular target: T1, Macaque 46 mer peptide (RB exon of …); experiment: recombinant antibody on peptide
[8] = molecular target: T2, Human 46 mer peptide (RB exon of human …); experiment: recombinant antibody on peptide
Human 18 mer peptide = molecular target: T4, Human 18 mer peptide (human); experiment: recombinant antibody on peptide
T4 construct: synthetic peptide from the RB exon
T4 peptide: VSSVQTPHLPTHADSQTPC

Human 20.2 peptide = molecular target: T5, Human 20.2 peptide (human); experiment: recombinant antibody on peptide
T5 construct: synthetic peptide from the RB exon
T5 peptide: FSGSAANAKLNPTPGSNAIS

Human 20.1 peptide [9] = molecular target: T3, Human 20.1 peptide; experiment: recombinant antibody on peptide
[10] = molecular target: T6, Human CD45RB (format not stated) (human, UniProt P08575-9 26-1192, limits assumed); experiment: screening of harvest 9
T6 construct: also called RB exon of CD45
T6 sequence (looked up): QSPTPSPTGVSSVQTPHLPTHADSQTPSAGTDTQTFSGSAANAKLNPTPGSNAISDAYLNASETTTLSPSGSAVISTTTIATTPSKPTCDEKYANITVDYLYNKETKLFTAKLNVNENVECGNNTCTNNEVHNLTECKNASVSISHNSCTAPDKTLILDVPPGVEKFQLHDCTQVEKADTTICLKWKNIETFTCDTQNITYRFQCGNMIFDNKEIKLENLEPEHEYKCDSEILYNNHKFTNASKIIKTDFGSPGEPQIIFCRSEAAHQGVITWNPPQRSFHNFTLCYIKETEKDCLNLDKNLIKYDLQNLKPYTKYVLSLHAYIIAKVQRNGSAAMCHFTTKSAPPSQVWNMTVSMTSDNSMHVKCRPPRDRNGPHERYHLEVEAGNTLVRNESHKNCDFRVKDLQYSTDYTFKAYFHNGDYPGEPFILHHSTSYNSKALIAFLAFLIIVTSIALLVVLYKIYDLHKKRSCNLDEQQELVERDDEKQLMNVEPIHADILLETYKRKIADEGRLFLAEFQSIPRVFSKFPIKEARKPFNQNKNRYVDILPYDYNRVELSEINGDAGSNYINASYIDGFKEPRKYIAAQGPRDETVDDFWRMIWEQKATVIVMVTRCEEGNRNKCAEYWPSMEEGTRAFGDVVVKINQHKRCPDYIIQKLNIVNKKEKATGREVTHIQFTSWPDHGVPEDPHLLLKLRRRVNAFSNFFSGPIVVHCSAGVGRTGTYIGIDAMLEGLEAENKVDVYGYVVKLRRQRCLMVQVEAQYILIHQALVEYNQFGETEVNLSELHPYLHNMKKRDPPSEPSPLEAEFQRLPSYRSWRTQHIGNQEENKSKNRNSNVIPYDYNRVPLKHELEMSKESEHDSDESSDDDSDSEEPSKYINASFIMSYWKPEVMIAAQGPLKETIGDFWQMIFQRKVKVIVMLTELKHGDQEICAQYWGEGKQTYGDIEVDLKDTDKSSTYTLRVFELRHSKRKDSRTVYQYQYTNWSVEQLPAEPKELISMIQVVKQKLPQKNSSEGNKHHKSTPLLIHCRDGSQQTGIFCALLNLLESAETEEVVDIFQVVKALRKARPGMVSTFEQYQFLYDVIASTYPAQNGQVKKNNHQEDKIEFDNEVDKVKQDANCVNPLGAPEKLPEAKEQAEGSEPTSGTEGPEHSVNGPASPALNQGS

[11] = molecular target: T7, chimeric CD45RB (full length human CD45RB with the macaque RB exon) transiently expressed in CHO cells (human; macaque, UniProt P08575-9 26-33; P08575-9 81-1192); experiment: transiently transfected CHO cells
T7 construct: whole chimeric protein on CHO cells; also called Macaque CD45RB CHO
T7 sequence: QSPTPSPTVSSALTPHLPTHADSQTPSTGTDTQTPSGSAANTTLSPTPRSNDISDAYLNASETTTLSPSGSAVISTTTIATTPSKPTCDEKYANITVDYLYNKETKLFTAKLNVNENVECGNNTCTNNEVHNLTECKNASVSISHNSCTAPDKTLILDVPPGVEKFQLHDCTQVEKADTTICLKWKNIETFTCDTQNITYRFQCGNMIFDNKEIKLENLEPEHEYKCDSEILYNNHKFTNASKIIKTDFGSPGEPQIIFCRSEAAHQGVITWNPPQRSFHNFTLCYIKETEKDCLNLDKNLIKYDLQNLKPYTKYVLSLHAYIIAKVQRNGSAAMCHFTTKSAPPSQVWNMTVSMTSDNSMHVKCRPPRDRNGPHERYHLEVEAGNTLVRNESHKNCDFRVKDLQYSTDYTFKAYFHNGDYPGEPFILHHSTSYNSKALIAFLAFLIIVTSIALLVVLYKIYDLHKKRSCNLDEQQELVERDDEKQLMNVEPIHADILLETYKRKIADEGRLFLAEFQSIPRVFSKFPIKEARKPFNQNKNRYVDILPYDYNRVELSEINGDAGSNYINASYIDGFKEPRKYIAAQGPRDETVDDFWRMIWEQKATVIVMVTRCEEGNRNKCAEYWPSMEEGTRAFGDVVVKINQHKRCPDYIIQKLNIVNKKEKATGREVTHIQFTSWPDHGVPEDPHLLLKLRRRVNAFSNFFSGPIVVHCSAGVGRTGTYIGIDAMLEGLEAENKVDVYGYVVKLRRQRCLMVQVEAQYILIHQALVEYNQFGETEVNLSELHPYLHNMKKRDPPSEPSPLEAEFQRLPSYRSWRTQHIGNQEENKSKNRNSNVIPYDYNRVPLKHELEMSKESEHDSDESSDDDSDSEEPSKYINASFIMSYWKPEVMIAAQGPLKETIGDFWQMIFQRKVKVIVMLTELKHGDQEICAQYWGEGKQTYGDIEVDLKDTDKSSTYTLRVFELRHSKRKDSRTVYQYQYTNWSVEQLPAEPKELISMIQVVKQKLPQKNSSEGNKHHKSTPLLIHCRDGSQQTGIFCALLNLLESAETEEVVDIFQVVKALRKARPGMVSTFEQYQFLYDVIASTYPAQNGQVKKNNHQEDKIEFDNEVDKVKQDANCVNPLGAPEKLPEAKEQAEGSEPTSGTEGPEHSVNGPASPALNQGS

[12] = molecular target: T6, Human CD45RB (format not stated); experiment: screening of harvest 2

| Binder | ELISA reading [4] | ELISA reading [5] | ELISA reading (Human 20.1 peptide [6]) | binding result [8] | binding result (Human 20.2 peptide) | other results |
| --- | --- | --- | --- | --- | --- | --- |
| antibody in the supernatant of B cell culture well 170B8 (antibody, V domains shown, recombinant 475 came from this well) VH: AVQLLESGGGLIQPGGSLRLSCAASGFTFSSYAMSWVRQAPGKGLEWVSAISGSGGSTFYADSVRGRFTISRDNSKNTLYLQMNSLRVEDTAVYYCAKEVMGPIFFDYWGQGTLVTVSS VL: EIVLTQSPGTLSLSPGERATLSCRASQSIISSALAWYQQKPGQAPRLLIYGASSRATGIPDRFSGSGSGTDFTLTISRLEPEDFAVYHCQQYGSTPLTFGGGTKVEIK |  |  |  |  |  | ELISA reading [1]: 0.8; ELISA reading [2]: 2.5; ELISA reading (Human 20.1 peptide [3]): 3.9 |
| antibody in the supernatant of B cell culture well 227E10 (antibody, V domains shown) VH: QVHLVESGGGLVKPGGSLRLSCAASGFTFINYYMTWIRQAPGKGLEWVSYISLSGSTIYYADSVKGRFTISRDNAKNSLFLQMNSLRAEDTAVYYCARRAATVTTFDYWGQGTLVTVSS VL: EIVMTQSPATLSVSPGERATLSCRASQSVRSNLAWSQQKPGQAPRLLIYGASTRATGIPARFSGSGSGTEFTLTISSLQSEDFAVYYCQQYNNWPLTFGGGTKVEIK | 0.2 | 0.2 | 0.1 |  |  |  |
| antibody in the supernatant of B cell culture well 250F2 (antibody, V domains shown, recombinant 662 came from this well) VH: QVQLVESGGDLVKPGGSLRLSCAASGFSFSGYYLSWIRQAPGKGLEWVSYISLSGSFIKYADSVKGRFTISRDNAKKTLHLQMNSLRAEDTAVYYCARRTGTTTVFDYWGQGTLVTVSS VL: EVVMTQSPATLSVSPGERATLSCRASQSVNSNLAWYQQRPGQAPRLLIYGASTRVTGIPARFSGSGSGTEFTLTISSLQSEDFAVYYCQQYNNWPLTFGGGTKVEIK | 0.2 | 0.2 | 0.1 |  |  |  |
| antibody in the supernatant of B cell culture well 255D9 (antibody, V domains shown, recombinant 713 came from this well) VH: QVQLVESGGGVVQPGRSLRLSCAASGFTFSNYGMHWVRQAPGKGLEWVAVIWYDGSKKFYADSVKGRFTISRDNFEKTLYLQMNSLRAEDTAVYYCARGGGDFDYWGQGTLVTVSS VL: EIVMTQSPATLSVSPGERATLSCRASQSLSGSYLAWYQQKPGQAPRLLIYSASTRATGIPARFSGSGSGTEFTLTISSLQSEDFAVYYCQQYNNWPPLTFGGGTKVEIK | 0.1 | 3.5 | 0.1 |  |  |  |
| antibody in the supernatant of B cell culture well 283B2 (antibody, V domains shown, recombinant 648 came from this well) VH: QVQLVESGGGLVKPGGSLRLSCAASGFTFNVYYMNWIRQAPGKGLEWVSYISTSSSAIYYADSVKGRFTISRDNAKNSLYLQMNSLRAEDTAVYYCARRTGSTTVFDYWGQGTLVTVSS VL: EIVLTQSPATLSVSPGERATLSCRASQSINNNLAWYQQKPGQAPRLLIYGASTRATGIPAKFSGSGSGTEFTLTISSLQSENFAVYYCQQYNKWPLTFGGGTKVEIK | 0.2 | 0.2 | 0.1 |  |  |  |
| AB-CD45RB-XG2-648 (antibody, human IgG2, V domains shown, recombinant human IgG2 kappa; also called sc648) VH: QVQLVESGGGLVKPGGSLRLSCAASGFTFNVYYMNWIRQAPGKGLEWVSYISTSSSAIYYADSVKGRFTISRDNAKNSLYLQMNSLRAEDTAVYYCARRTGSTTVFDYWGQGTLVTVSS VL: EIVLTQSPATLSVSPGERATLSCRASQSINNNLAWYQQKPGQAPRLLIYGASTRATGIPAKFSGSGSGTEFTLTISSLQSENFAVYYCQQYNKWPLTFGGGTKVEIK |  |  |  | no binding | no binding | binding result [7]: no binding; binding result (Human 18 mer peptide): no binding; binding result (Human 20.1 peptide [9]): no binding; binding result [10]: binds |
| AB-CD45RB-XG2-009 (antibody, human IgG2, V domains shown, recombinant human IgG2 kappa; also called sc009; 16C9 (sc009)) VH: QVQLVESGGGVVQPGRSLRLSCAASGFTFSNYGMHWVRQAPGKGLEWVAVIWYDGSKRFYAGSVKGRFTISRDNSKNTLYLQMNSLRAEDTAVYYCARTTDYWGQGTMVTVSS VL: DIVMTQTPLSLSVTPGQPASISCKSSQSLLHSDGKTYLYWYLQKPGQPPQLLIYEVSNRFSGVPDRFSGSGSGTDFTLKISRVEAEDVGLYWCMQSIQLPITFGQGTRLEIK |  |  |  | binds | no binding | binding result [11]: no binding; binding result (Human 18 mer peptide): no binding; binding result (Human 20.1 peptide [9]): no binding; binding result [12]: binds |
| AB-CD45RB-XG2-539 (antibody, human IgG2, V domains shown, recombinant human IgG2 kappa; also called sc539) VH: QVQLQESGPGLVKPSETLSLTCTVSGGSISGSYWSWIRQPAGKGLEWIGRIHSTGKTAYNPSLKSRVIMSLDTSKNLFSLKLTSVTAADTAVYYCARDYDFLTGYFDYWGQGTLVTVSS VL: DVVMTQSPLSLPVTLGQPASISCRSSQSLVYGDGNTYLNWFQQRPGHSPRRLIYKVSNWDSGVPDRFSGSGSGTDFTLKISRVEAEDVGIYYCMQGTHWPPTFGQGTRVEIK |  |  |  | no binding | no binding | binding result [11]: no binding; binding result [7]: no binding |
